# Data from patent US20240101645A1 (HENRY M JACKSON FOUNDATION FOR THE ADVANCEMENT OF MILITARY …, published 2024).
# T1: HCoV-OC43 spike antigens (bead panel) (HCoV-OC43, UniProt P36334 14-1297)
# T1 sequence: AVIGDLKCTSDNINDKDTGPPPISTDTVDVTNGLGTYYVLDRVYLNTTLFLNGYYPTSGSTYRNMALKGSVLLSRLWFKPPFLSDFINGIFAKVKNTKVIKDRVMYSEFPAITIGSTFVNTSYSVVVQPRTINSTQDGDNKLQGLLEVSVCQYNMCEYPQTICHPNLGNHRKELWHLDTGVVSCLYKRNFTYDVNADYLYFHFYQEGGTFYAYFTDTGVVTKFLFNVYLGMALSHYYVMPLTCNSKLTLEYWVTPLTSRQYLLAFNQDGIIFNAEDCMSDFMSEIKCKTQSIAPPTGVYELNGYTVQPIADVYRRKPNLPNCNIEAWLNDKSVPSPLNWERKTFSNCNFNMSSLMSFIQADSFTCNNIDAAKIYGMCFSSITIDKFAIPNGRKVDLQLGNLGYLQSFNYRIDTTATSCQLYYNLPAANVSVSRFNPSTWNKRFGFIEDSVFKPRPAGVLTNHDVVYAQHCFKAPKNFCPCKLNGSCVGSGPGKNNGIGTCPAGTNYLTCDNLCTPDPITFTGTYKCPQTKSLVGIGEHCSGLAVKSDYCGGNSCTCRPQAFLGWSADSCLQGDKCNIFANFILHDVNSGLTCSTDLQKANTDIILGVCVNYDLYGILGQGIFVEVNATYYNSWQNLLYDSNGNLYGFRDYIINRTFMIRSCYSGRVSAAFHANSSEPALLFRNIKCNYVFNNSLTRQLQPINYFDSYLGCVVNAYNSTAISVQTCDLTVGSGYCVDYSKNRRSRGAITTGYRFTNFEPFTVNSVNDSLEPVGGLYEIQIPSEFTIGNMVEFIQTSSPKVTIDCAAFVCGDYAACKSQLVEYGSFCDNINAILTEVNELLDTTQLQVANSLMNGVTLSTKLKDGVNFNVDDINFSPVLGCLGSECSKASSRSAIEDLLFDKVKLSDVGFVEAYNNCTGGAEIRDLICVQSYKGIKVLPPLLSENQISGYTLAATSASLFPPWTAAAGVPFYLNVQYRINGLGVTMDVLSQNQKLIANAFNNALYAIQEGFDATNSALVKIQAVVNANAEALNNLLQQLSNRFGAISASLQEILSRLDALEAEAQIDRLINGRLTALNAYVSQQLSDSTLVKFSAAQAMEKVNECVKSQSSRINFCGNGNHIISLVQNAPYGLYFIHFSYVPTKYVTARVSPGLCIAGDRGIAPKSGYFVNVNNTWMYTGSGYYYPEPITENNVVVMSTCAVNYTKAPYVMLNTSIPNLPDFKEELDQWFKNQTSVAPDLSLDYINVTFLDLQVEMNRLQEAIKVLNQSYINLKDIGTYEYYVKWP
# T2: HCoV-229E spike antigens (bead panel) (HCoV-229E, UniProt P15423 16-1115)
# T2 sequence: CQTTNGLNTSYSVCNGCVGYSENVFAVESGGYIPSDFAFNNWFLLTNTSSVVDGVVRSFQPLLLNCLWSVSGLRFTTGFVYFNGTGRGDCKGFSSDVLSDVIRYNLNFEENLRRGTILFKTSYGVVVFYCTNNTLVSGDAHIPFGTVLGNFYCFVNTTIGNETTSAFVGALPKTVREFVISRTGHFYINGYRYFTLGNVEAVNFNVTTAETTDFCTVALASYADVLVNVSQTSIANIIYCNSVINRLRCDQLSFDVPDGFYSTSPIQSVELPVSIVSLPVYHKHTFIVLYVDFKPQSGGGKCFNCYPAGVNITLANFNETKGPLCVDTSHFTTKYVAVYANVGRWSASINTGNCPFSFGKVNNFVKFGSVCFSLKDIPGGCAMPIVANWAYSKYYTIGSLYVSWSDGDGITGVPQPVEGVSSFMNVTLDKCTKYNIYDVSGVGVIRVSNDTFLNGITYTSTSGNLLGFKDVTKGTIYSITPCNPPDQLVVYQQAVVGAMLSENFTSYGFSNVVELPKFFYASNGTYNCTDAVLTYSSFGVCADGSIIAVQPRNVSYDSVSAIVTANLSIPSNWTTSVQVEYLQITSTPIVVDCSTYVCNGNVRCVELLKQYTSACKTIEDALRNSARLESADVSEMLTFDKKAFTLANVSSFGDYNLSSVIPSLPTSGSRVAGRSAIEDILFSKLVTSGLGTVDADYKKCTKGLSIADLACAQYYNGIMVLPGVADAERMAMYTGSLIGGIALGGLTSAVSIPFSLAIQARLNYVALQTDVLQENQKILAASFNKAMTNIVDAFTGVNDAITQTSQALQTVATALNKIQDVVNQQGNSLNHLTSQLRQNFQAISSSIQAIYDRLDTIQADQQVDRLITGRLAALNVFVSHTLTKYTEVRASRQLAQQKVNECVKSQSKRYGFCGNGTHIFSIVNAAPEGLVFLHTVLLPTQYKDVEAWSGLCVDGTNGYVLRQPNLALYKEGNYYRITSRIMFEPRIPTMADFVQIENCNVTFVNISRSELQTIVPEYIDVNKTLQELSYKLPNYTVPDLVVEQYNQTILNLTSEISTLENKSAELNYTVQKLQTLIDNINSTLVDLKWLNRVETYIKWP
# T3: HCoV-NL63 spike antigens (bead panel) (HCoV-NL63, UniProt Q6Q1S2 19-1296)
# T3 sequence: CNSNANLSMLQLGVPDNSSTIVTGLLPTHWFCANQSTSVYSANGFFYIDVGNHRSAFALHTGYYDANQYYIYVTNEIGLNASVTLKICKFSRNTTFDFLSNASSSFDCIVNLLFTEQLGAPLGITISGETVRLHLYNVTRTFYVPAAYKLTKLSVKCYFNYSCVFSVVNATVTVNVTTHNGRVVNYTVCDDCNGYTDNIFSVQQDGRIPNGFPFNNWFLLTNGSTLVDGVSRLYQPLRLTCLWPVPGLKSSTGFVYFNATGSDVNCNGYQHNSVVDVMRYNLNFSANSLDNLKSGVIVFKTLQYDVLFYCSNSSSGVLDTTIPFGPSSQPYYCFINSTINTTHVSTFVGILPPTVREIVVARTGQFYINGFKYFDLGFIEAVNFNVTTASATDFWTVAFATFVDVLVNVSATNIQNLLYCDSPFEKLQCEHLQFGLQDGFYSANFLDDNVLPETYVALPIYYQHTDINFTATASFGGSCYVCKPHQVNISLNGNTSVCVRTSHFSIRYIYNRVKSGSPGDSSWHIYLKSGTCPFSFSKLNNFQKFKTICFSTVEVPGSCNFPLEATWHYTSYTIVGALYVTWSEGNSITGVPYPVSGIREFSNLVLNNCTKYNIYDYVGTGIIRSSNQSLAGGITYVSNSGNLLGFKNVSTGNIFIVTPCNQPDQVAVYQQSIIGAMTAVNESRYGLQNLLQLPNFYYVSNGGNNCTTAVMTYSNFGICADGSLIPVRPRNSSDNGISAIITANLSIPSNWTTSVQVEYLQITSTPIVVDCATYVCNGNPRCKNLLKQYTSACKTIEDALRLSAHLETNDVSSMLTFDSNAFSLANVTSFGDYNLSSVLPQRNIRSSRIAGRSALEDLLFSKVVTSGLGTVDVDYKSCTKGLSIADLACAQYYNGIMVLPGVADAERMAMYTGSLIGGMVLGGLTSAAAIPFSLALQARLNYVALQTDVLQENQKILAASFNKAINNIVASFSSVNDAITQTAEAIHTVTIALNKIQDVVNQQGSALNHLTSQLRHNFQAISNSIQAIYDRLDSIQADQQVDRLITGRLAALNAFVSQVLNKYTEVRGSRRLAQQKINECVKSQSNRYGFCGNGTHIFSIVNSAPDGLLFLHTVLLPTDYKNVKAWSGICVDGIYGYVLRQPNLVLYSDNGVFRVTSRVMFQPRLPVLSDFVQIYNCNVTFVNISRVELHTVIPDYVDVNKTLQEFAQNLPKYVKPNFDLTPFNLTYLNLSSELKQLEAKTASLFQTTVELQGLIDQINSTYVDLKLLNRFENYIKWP
# Assays:
# [1] = molecular target: SARS-CoV-2 S on pseudovirions (Wuhan Hu-1 / IL1/2020, last 18 amino acids removed) (SARS-CoV-2, UniProt P0DTC2 14-1273); assay: cell-based or functional assay
# [2] = molecular target: T1, HCoV-OC43 spike antigens (bead panel); assay: multiplex bead assay
# [3] = molecular target: T2, HCoV-229E spike antigens (bead panel); assay: multiplex bead assay
# [4] = molecular target: T3, HCoV-NL63 spike antigens (bead panel); assay: multiplex bead assay
# [5] = molecular target: SARS-CoV-1 spike antigens (bead panel) (SARS-CoV-1, UniProt P59594 14-1195); assay: multiplex bead assay
binder,measurement,setting,value
"COV_1007 (antibody, V domains shown, human IgG1) VH: QVTLKESGPVLVKPTETLTLTCTVSGFSLINARVGVSWIRQPPGKALDWLAHIFSSDEKSYSTSLKSRLTISKDTSKSQVVLTMTNMDPVDTATYYCARIRWLSSYYFDYWGQGTLVTVSS VL: DIRMTQSPSSVSASVGDRVTITCRASQGISNWLAWYQQKPGKAPKLLIYAASSLQSGVPSRFSGGGSGTDFTLTISSLQPEDFATYYCQQANSFLLTFGGGTKVEIK","Mean IC50, pSV neutralization",[1],9 µg/ml
same,"Mean IC80, pSV neutralization",[1],≥ 25 µg/ml
same,binding result,[2],no binding
same,binding result,[3],no binding
same,binding result,[4],no binding
same,binding result,[5],no binding
